According to US20260151519A1 (AKTIS ONCOLOGY, published 2026):
Bridges are numbered along the chain shown (N, C = ends). Primed or numbered codes have the meaning given here. Where no end group is shown, it is not given here. [ ]: non-standard residue; d: D form. The star is where a group is joined. DOTA = O=C(O)CN1CCN(CC(=O)O)CCN(CC(=O)*)CCN(CC(=O)O)CC1; Biotin = O=C1N[C@H]2[C@H](CS[C@H]2CCCCC(=O)*)N1; hydroxy‑norleucine = hydroxy-norleucine residue; Cit = NC(=O)NCCC[C@H](N)C(=O)O; PEG4″ = 4(ethylene glycol); PEG12′ = not defined here; Nle = CCCC[C@H](N)C(=O)O

Molecular target: T1, Human Nectin-4 (human, UniProt Q96NY8 32-349, limits assumed)
T1 construct: Protein immobilised on the SPR chip; also called target protein
T1 sequence: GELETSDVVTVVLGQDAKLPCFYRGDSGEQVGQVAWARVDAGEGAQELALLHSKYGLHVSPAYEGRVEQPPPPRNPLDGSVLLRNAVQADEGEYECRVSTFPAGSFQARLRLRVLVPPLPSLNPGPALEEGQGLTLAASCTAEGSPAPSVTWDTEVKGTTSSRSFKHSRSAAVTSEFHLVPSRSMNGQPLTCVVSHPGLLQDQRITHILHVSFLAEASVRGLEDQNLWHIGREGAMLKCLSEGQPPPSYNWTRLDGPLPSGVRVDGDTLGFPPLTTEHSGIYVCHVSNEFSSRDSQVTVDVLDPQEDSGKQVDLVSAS
Experiment: Table 2B (DELFIA or SPR)

Binder	Kd [nM]
{Biotin-PEG4″}-CEYDEEFFTALARLRGGDICYYIQA[hydroxy‑norleucine]FQYLPGLCIEEILDNLGCS-OH (designed binder, disulfide 1-34, 20-44) [C164]	5
{Biotin-PEG4″}-CEYDEEFFTALKRLRGGDICEYIQA[Nle]FQYLPGLCIEEILDNLGCS-OH (designed binder, disulfide 1-34, 20-44) [C199]	3.5
{Biotin-PEG4″}-CEYDEEFFTALA[Cit]LRGGDICEYIQAKFQYLPGLCIEEILDNLGCS-OH (designed binder, disulfide 1-34, 20-44) [C171]	2.2
{Biotin-PEG4″}-CEYDEEFFTALA[Cit]LRGDDICSYIQAKFQYLPGLCIEEILDNLGCS-OH (designed binder, disulfide 1-34, 20-44) [C172]	1.8
{Biotin-PEG4″}-CDYDEEFFTALA[Cit]LRGGDICEYIQAKFQYLPGLCIEEILDNLGCS-OH (designed binder, disulfide 1-34, 20-44) [C176]	1.3
{Biotin-PEG4″}-CEYDEEFFTALA[Cit]LRGGDICYYIQAKFQYLPGLCIEEILDNLGCS-OH (designed binder, disulfide 1-34, 20-44) [C163]	1.9
{Biotin-PEG4″}-CEYDEEFFTALA[Cit]LRGGDICSYIQAKFQYLPGLCIEEILDNLGCS-OH (designed binder, disulfide 1-34, 20-44) [C175]	2.3
Ac-CEYDEEFFDGLKRLRGGDICYYIKKKFKKVPDLCIEEILDKLGC-OH (designed binder, disulfide 1-34, 20-44) [C27]	9.85
Ac-CEYDEEFFLALKRLRGGDICYYIKKKFKKVPKLCIEEILEKLGC-OH (designed binder, disulfide 1-34, 20-44) [C77]	0.58
Ac-CEYDEEFFTGLKRLRGGDICYYIKKKFKKVPKLCIEEILDKLGC-OH (designed binder, disulfide 1-34, 20-44) [C31]	1.31
Ac-CEYDEQFFTGLKRLRGGDICYYIKKKFKKVPKLCIEEILDKLGC-OH (designed binder, disulfide 1-34, 20-44) [C71]	2.85
Ac-CEYDEEFFLGLKRLRGGDICYYIKKKFKKVPDLCIEEILKKLGC-OH (designed binder, disulfide 1-34, 20-44) [C64]	3.8
Ac-CEYDEEFFTLLKRLRGGDICYYIKKKFKKVPKLCIEEILDKLGC (designed binder, disulfide 1-34, 20-44) [C56]	3.88
Ac-CEYDEEFFTGLKRLRGGTICYYIKKKFKKVPDLCIEEILDKLGC-OH (designed binder, disulfide 1-34, 20-44) [C41]	5.6
Ac-CEYDEEFFQGLKRLRGGDICYYIKKKFKKVPDLCIEEILDKLGC-OH (designed binder, disulfide 1-34, 20-44) [C33]	3.47
Ac-CEYDEQFFTGLKRLRGGDICYYIKKKFKKVPDLCIEEILDKLGC-OH (designed binder, disulfide 1-34, 20-44) [C49]	1.93
Ac-CEYDEEFFLGLKRLRGGDICYYIKKKFKKVPKLCIEEILKKLGC-OH (designed binder, disulfide 1-34, 20-44) [C63]	1.97
Ac-CEYDEEFFKGLKRLRGGDICYYIKKKFKKVPKLCIEEILDKLGC-OH (designed binder, disulfide 1-34, 20-44) [C80]	2.7
Ac-CEYDEEFFKALKRLRGGDICYYIKKKFKKVPKLCIEEILDKLGC-OH (designed binder, disulfide 1-34, 20-44) [C81]	0.43
Ac-CEYDEEFFLGLKRLRGGDICYYIKKKFKKVPKLCIEEILDKLGC-OH (designed binder, disulfide 1-34, 20-44) [C58]	1.81
{DOTA-PEG12′}-CEYDEEFFAGLKRLRGGDICYYIKKKFDKVPDLCIEEILDKLGC-OH (designed binder, disulfide 1-34, 20-44) [C51]	8.37
Ac-CEYDEKFFTGLKRLRGGDICYYIKKKFKKVPKLCIEEILDKLGC-OH (designed binder, disulfide 1-34, 20-44) [C70]	2.2

Binder	Kd [nM]
Ac-CEYDEEFFLGLKRLRGGDICYYIKKKFKKVPELCIEEILEKLGC-OH (designed binder, disulfide 1-34, 20-44) [C68]	2.66
Ac-CEYDEEFFTGLKRLRGGDICYYIKKKFKKVPELCIEEILKKLGC-OH (designed binder, disulfide 1-34, 20-44) [C65]	2.21
Ac-CEYDEEFFTTLKRLRGGDICYYIKKKFKKVPKLCIEEILDKLGC-OH (designed binder, disulfide 1-34, 20-44) [C55]	3.39
Ac-CEYDEKFFTGLKRLRGGDICYYIKKKFKKVPDLCIEEILDKLGC-OH (designed binder, disulfide 1-34, 20-44) [C46]	2.28
Ac-CEYDEEFFKGLKRLRGGDICYYIKKKFKKVPKLCIEEILEKLGC-OH (designed binder, disulfide 1-34, 20-44) [C69]	1.86
Ac-CEYDEEFFTGLKRLRGGDICYYIKKKFKKVPELCIEEILDKLGC-OH (designed binder, disulfide 1-34, 20-44) [C32]	3.26
Ac-CEYDEEFFLGLKRLRGGDICYYIKKKFKKVPDLCIEEILEKLGC-OH (designed binder, disulfide 1-34, 20-44) [C60]	3.17
Ac-CEYDEEFFLGLKRLRGGDICYYIKKKFKKVPDLCIEEILDKLGC-OH (designed binder, disulfide 1-34, 20-44) [C34]	3.17
Ac-CEYDEEFFTGLKRLRGGDICYYIKKKFKKVPDLCIEEILEKLGC-OH (designed binder, disulfide 1-34, 20-44) [C45]	3.29
Ac-CEYDEEFFSGLKRLRGGDICYYIKKKFKKVPDLCIEEILDKLGC-OH (designed binder, disulfide 1-34, 20-44) [C28]	5.29
Ac-CEYDEEFFLGLKRLRGGDICYYIKKKFKKVPELCIEEILKKLGC-OH (designed binder, disulfide 1-34, 20-44) [C67]	2.64
Ac-CEYDEEFFLGLKRLRGGDICYYIKKKFKKVPKLCIEEILEKLGC-OH (designed binder, disulfide 1-34, 20-44) [C61]	1.79
Ac-CEYDEEFFTGLKRLRGGDICYYIKKKFKKVPDLCIEEILDKLGC-OH (designed binder, disulfide 1-34, 20-44) [C29]	3.91
Ac-CEYDEEFFTALKRLRGGDICYYIKKKFKKVPKLCIEEILDKLGC-OH (designed binder, disulfide 1-34, 20-44) [C57]	0.29
Ac-CEYDEEFFTALKRLRGGDICYYIKKKFKKVPKLCIEEILEKLGC-OH (designed binder, disulfide 1-34, 20-44) [C79]	0.38
Ac-CEYDEEFFLALKRLRGGDICYYIKKKFKKVPKLCIEEILDKLGC-OH (designed binder, disulfide 1-34, 20-44) [C78]	0.49
Ac-CEYDEEFFTGLKRLRGGDICYYIKKKFKKVPELCIEEILEKLGC-OH (designed binder, disulfide 1-34, 20-44) [C66]	2.63
Ac-CEYDEEFFEGLKKLRGGDICYYIKKKFKKVPDLCIEEILDKLGC-OH (designed binder, disulfide 1-34, 20-44) [C30]	24.9
Ac-CEYDEEFFTGLKRLRGGDICYYIKKKFKKVPDLCIEEILKKLGC-OH (designed binder, disulfide 1-34, 20-44) [C44]	3.14
Ac-CEYDEEFFKALKRLRGGDICYYIKKKFKKVPKLCIEEILEKLGC-OH (designed binder, disulfide 1-34, 20-44) [C76]	0.52
Ac-CEYDEEFFTDLKRLRGGDICYYIKKKFKKVPKLCIEEILDKLGC-OH (designed binder, disulfide 1-34, 20-44) [C52]	5.24
